Test results taken from patent US20040018204A1.

B1: WT1 peptide p329-337 (…) (peptide)
peptide: GCNKRYFKL
B2: WT1 peptide p235-243 (…) (peptide)
peptide: CMTWNQMNL
B3: WT1 peptide p225-233 (…) (peptide)
peptide: NLYQMTSQL
B4: WT1 peptide p10-18 human (…) (peptide)
peptide: ALLPAVPSL
B5: WT1 peptide p228-236 (…) (peptide)
peptide: QMTSQLECM
B6: WT1 peptide p136-144 human (…) (peptide)
peptide: SCLESQPAI
B7: WT1 peptide p221-229 (…) (peptide)
peptide: YSSDNLYQM
B8: WT1 peptide p239-247 (…) (peptide)
peptide: NQMNLGATL
B9: WT1 peptide P130-138 (…) (peptide)
peptide: NAPYLPSCL
B10: WT1 peptide P120-128 (…) (peptide)
peptide: ASSGQARMF
B11: WT1 peptide P129-137 (…) (peptide)
peptide: PNAPYLPSC
B12: WT1 peptide P128-136 (…) (peptide)
peptide: FPNAPYLPS
B13: WT1 peptide P131-139 (…) (peptide)
peptide: APYLPSCLE
B14: WT1 peptide P125-133 (…) (peptide)
peptide: ARMFPNAPY
B15: WT1 peptide P124-132 (…) (peptide)
peptide: QARMFPNAP
B16: WT1 peptide P127-135 (…) (peptide)
peptide: MFPNAPYLP
B17: WT1 peptide P117-125 (…) (peptide)
peptide: PSQASSGQA
B18: WT1 peptide P119-127 (…) (peptide)
peptide: QASSGQARM
B19: WT1 peptide P121-129 (…) (peptide)
peptide: SSGQARMFP
B20: WT1 peptide P118-126 (…) (peptide)
peptide: SQASSGQAR

The binders below were run against mouse B6 MHC class I antigens (H-2b: D^b or K^b) on the surface of RMA-S cells (mouse) (assay: RMA-S class I stabilisation, peptide 25 ug/ml, flow cytometry with FITC anti-D^b or anti-K^b, MFI against medium alone).

Row | Binding Affinity to Mouse MHC Class I (% increase of class I on RMA-S cells) | Binder
1 | 1.2% | B1
2 | 33.6% | B2
3 | 5.8% | B3
4 | 2.2% | B4
5 | 1.2% | B5
6 | 52% | B6
7 | 0.8% | B7
8 | 1% | B8

What follows are binders tested against mouse B6 MHC class I antigens (H-2b: D^b or K^b) on the surface of RMA-S cells (mouse) (assay: binding of 9mer peptides within p117-139 to mouse B6 (H-2b) class I antigens; RMA-S assay as for Table XLVII).

Row | Binding Affinity to Mouse MHC Class I | Binder
9 | 79% | B9
10 | 1% | B10
11 | 1% | B11
12 | 1% | B12
13 | 1% | B13
14 | 1% | B14
15 | 1% | B15
16 | 2% | B16
17 | 2% | B17
18 | 2% | B18
19 | 1% | B19
20 | 2% | B20
